# Data from the supplement of paper PMC12042874.
# ± gives the uncertainty stated by the source.
# Experiment: amyloid nucleation score (Sup35N fusion, yeast selection) (log enrichment); library NNK1; higher = more nucleation; inactive = no reads after selection
# Method in brief: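 The nucleation score, computed with DiMSum, is the log enrichment of output over input reads, centred on the mode score of non-aggregating sequences. Sequences with under 100 input reads were dropped. Reads were generated by Illumina sequencing of plasmid inserts from psi-negative yeast with Sup35N fused to peptides of 20 random codons, induced with 100 μM copper sulfate for 24 hours and grown 7 days at 30°C on medium lacking adenine and uracil.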
row,Substance,amyloid nucleation score
1,WCGLARREKCRMPNGHRVHI,-0.497 ± 0.48
2,TCAGDNHDCDIYRNLLVAFS,1.19 ± 0.68
3,GFYPHANLTMFRALNKCGEV,0.501 ± 0.53
4,AWMSRIVNNPGSNTFSRQWL,-0.284 ± 0.71
5,SHNEG,1.34 ± 0.41
6,RADWYASAGKRCGHLQG,-0.148 ± 0.3
7,YVIHLPKCTKLWMWANCFLW,-0.215 ± 0.62
8,RMYYAFVCGGEDMESEFPCY,-0.037 ± 1.4
9,TNHDMAINLVQQLDC,1.67 ± 0.61
10,SARQVSGLTWVM,2.52 ± 0.11
11,AMDMSADAGDSWNCGCQYSN,inactive
12,GQDDYLWRRSGLDHNHSSSS,-0.568 ± 0.37
13,FLSEMWTKVICWVCCCPVYA,4.64 ± 0.062
14,YSLVDTTLVILS,0.226 ± 0.36
15,VLFAR,0.566 ± 0.48
16,TYVCDMEHSVYCYYVEAQLY,0.49 ± 0.4
17,ASNGVN,-0.099 ± 0.5
18,IKVLSYISWCGGFEKRCVGG,1.05 ± 0.46
19,YVWAAIGVRLYSRHK,-0.002 ± 1.4
20,KYWGS,inactive
21,NTKSTPNTSVLFSLTTRI,1.3 ± 0.15
22,LPDVKCVLLLMLHLEASRSA,-0.21 ± 0.58
23,SSAELFREPFQVNRCNCEGW,0.774 ± 0.47
24,HYVRNPARD,inactive
25,LGFMTCSP,inactive
26,NVMQKNLFGSCIILLSWSLS,0.078 ± 0.26

row,Substance,amyloid nucleation score
1,WWVGCRACLPWDASSGKLLG,0.139 ± 0.34
2,GELTIYCSVVPYVVSR,0.415 ± 0.44
3,RTLHRLLSSINAKGDRYRLR,-0.935 ± 1.9
4,RVFKFSPYILKAILEVSNA,0.458 ± 0.32
5,IINMMLSHRDNWLFYMSFVG,-0.308 ± 0.42
6,SVLWRGIFCFWIAWFV,-1.39 ± 2.4
7,VFSCWKAVILIPVQGVLVQR,0.616 ± 0.41
8,VCVWCKISPSTYCALIFGDL,-0.181 ± 0.32
9,NFLIANRSLDAVLMVQLPFV,-0.344 ± 0.98
10,LLVRHEEKG,0.263 ± 0.42
11,PATMDLIVVPWITVLKEIN,-0.451 ± 0.89
12,ISCTNCLKCPLYTSFRPLLC,-0.13 ± 0.44
13,FFCRFGILFSTKGFLGFMRF,1.01 ± 0.67
14,LSTNDTSR,-0.028 ± 0.53
15,ASDLGATKHNLHFIACIFSL,4.77 ± 0.074
16,VECSCKLRLAASGGNYRGWG,2.3 ± 0.25
17,LCLKF,0.77 ± 0.97
18,CPITWNFLCGIVLIEYYRVV,7.04 ± 0.087
19,GCNMII,-0.34 ± 0.38
20,SSMYDSCSLRCLGQVVR,0.711 ± 0.19
21,GIFDLLYWLRELSLRKA,1.14 ± 0.39
22,AIVYRQKLISQLYFARLLRH,0.063 ± 1.4
23,TVMSNHGHLMKYYFVRLEGF,0.759 ± 0.62
24,DYGIVGAEVKKCLIL,0.433 ± 0.44
25,TMRLNQCPLNSFPTLFLYER,-0.602 ± 0.31
26,TFIMSQSWFMQWPRTMAAMT,-0.346 ± 0.45

row,Substance,amyloid nucleation score
1,LGGSDYVYANSFTTIGSSGV,-0.202 ± 0.21
2,AFRTS,-0.203 ± 0.43
3,YFRGNVNAWLLWSEICQVPF,0.677 ± 0.88
4,SFILCGISRSYQMLLMTRYL,6.09 ± 0.068
5,ARLSL,0.157 ± 0.64
6,DTRNPRITALRY,0.431 ± 0.39
7,GMVLEWWIFMFGVPFSSDRA,-0.122 ± 0.74
8,TIDERDSAHKSSVFKGLKEI,-0.447 ± 0.33
9,SQAETLYFYVCQVLRGQYYD,0.305 ± 0.32
10,AGECRYLLMSVDGYIGLNLV,1.07 ± 0.48
11,WFRSGDNLRIM,1.65 ± 0.55
12,RSNCDFLSNNYGFLFGFLSQ,0.525 ± 0.44
13,NQACAFYNRLRFGK,3.27 ± 0.14
14,WSISGELFTVVSDWPFCPIG,inactive
15,SYWLWTVNTMSLVPFRASCR,1.05 ± 0.36
16,NDRCFIGPWRSSRPGDFSGH,-0.043 ± 1.4
17,WNRRGA,-0.054 ± 0.35
18,LVHPSWN,-0.311 ± 0.77
19,LYLEARGGRVSYHQLFFGER,2.45 ± 0.18
20,RTIHAIERDDCLRGNSGKNN,1.12 ± 0.57
21,FFMLGSSY,inactive
22,KKFEVSL,0.159 ± 0.68
23,KLAYKRSQMLTVVPRCSQGT,-0.39 ± 0.53
24,LCWTIWV,-1.61 ± 2.4
25,PNVFFFLISMIFSDFLVGSG,0.192 ± 1.2
26,MHISCNTDSSYTFGRNALK,0.341 ± 0.74

row,Substance,amyloid nucleation score
1,AVIAMYRVNAPSC,1.15 ± 0.41
2,FTVARYKGIYNFSQGRCA,-0.33 ± 1.2
3,QPNSWELWPCSDLRIRLVEE,0.104 ± 0.34
4,FPILVCVLKVLDVVLSDRVL,inactive
5,SFTWFVTAANYKW,1.8 ± 0.35
6,DRLGDHLKDILVKFYNV,0.294 ± 0.99
7,FFWLVAK,-1.18 ± 1.2
8,TVNVFFLQACSRSC,7.73 ± 0.06
9,KTFYLWW,3.04 ± 0.14
10,FNAIWVVLRVRNREYKTSVL,1.03 ± 0.7
11,RKRVCSGLRSFWSFFRCLRV,-0.711 ± 2.1
12,NGEILSTLDDVTMLRIRTTC,0.071 ± 0.41
13,IHTVTLNNHSSNGDCSSFNI,-0.453 ± 0.43
14,FWLILFIVFIKYMNILFRTC,1.08 ± 0.27
15,HLGNSSNQIILHQCI,4.67 ± 0.059
16,AAALRIIGHYMRALLTELLQ,0.687 ± 0.46
17,SVLVLSRYFWNKLMRRWLVA,-0.002 ± 1.2
18,FGDWGCRRRNVSA,-0.269 ± 0.37
19,VEMNFSFVGR,2.62 ± 0.23
20,SRMGPGNYWANGKSFAARPP,-0.491 ± 1.4
21,YNYICTDSWILSTMVDFVHL,-0.442 ± 0.92
22,ATSDI,-0.076 ± 0.27
23,YGVEMLPHISNAVTLFFGN,8.133 ± 0.057
24,FMTEWSVTFMRMYMAYLGSV,0.424 ± 0.29
25,IFSGSPGLN,5.71 ± 0.076
26,LLKRRTREIAALYRHSSNGY,1.26 ± 0.57

row,Substance,amyloid nucleation score
1,PGTSARRIDTKDVPYPFIPS,1.16 ± 0.51
2,VKLCRACCYEYWRHHSPLGC,0.594 ± 0.43
3,AFMSRVGLHW,0.691 ± 0.25
4,PIVMCFFGKV,-0.201 ± 0.41
5,AFCIFCSRLAEIAHLAF,7.133 ± 0.046
6,YDGPLFVTFILI,5.88 ± 0.077
7,GSWYHDRVSLCFFIFDCG,4.82 ± 0.076
8,SECSINRWF,0.965 ± 0.76
9,LYVDYQCIGSFVTIYKYITP,0.889 ± 0.27
10,LGTMSVYRRPRSMMGCRDQG,0.173 ± 0.26
11,HCLAGNLDLAMVRVRSPTCL,0.032 ± 0.59
12,RMYLGVLIRHWIDSFAFGMQ,0.193 ± 0.32
13,VPFLWLRLCRRCYLTMGCSI,-0.491 ± 0.97
14,FWQIAGRGFGRYG,-0.258 ± 0.45
15,ANTNAFKHLNYILMVLVLQG,inactive
16,FKGQSVCFDLVGWFEVLCQG,-0.381 ± 0.85
17,VVLNIR,-0.232 ± 0.52
18,YMSWASLRKHFIFVV,-0.282 ± 1.2
19,SFDRLMCRAM,0.688 ± 0.88
20,IGIFIGRLCCYIFGEVMR,1.16 ± 0.16
21,GNLLVMVGNMRSIDKC,0.326 ± 0.3
22,WFVGGTWQGAMNKGPTFVN,0.078 ± 0.56
23,LPKMWYIDLFVSGVY,0.241 ± 0.48
24,IWALKVWLRLTYCHICFRVV,0.265 ± 0.58
